Legend:
[1] = target: T1, human fibrinogen (Homo sapiens, UniProt P02671+P02675+P02679); assay: Spot membrane analysis of fibrinogen binding by synthetic peptides; conditions: peptides derived from FbsA repeat GNVLERRQRDAENRSQ
T1 construct: purchased Sigma-Aldrich
Description: Fibrinogen binding was tested with peptides carrying the FbsA repeat motif ‘GNVLERRQRDAENRSQ’ (SEQ ID 113) and with peptides containing the scrambled sequence ‘GLSQNRDVRENQRARE’. (SEQ ID 205) Synthetic peptides, which differed from the repeat motif in that single amino acids had been replaced by alanine, were probed for fibrinogen binding. Beside the spot membrane, the sequence of each synthetic peptide is listed. Bold and underlined letters indicate amino acid substitutions within the repeat motif.
Synthetic peptides were tested for fibrinogen binding, in which each of the amino acids of the fibrinogen-binding repeat was replaced by each of the 20 amino acids. The vertical letters, printed in bold, represent the FbsA-derived fibrinogen binding sequence ‘GNVLERRQRDAENRSQ’ (SEQ ID NO: 113). The horizontal letters represent those amino acids that were introduced in the synthetic peptides instead of the original amino acid in the respective position.
In Western blot experiments proteins were separated by SDS-PAGE and electroblotted onto nitrocellulose. […] For spot membrane experiments peptides of 16 amino acids were synthesized and equal amounts of the peptides were directly spotted onto cellulose paper as described previously (Frank and Overwin, 1996). Blocking was performed in membrane blocking solution (MBS) that consisted of 20 ml casein based blocking buffer (Genosys Biotechnologies, Cambridge, England), 80 ml Tris-buffered saline (TBS), 0.05% tween 20, and 5 g sucrose. Probing for fibrinogen-binding was performed as described below.
Membranes that had been blocked overnight were incubated for 1 h with 2 μg/ml of human fibrinogen. For Western and colony blot experiments, fibrinogen and antibodies were diluted in PBS while for spot membrane analysis they were diluted in MBS. Following three washes with PBS, the membrane was incubated with anti-fibrinogen antibodies (1:1000 in PBS or MBS) for 1 h. This incubation was followed by three washes with PBS, containing 0.05% tween 20 (PBST) and two washes with PBS. Subsequently, the membrane was incubated for 1 h with peroxidase-labelled anti-rabbit IgG (1:1000 in PBS or MBS). After three washes with PBST and two washes with PBS, bound fibrinogen was detected by chemiluminescence using the ECL-kit (Amersham/Pharmacia). In control experiments, no cross-reactivity of the used antibodies with the immobilized proteins and peptides was detected.

[2] = tested on: GBS 6313; assay: Competitive inhibition of 125I-labelled fibrinogen binding to GBS; set-up: species or system Streptococcus agalactiae; conditions: for inhibition of fibrinogen binding to GBS: 160 μM synthetic peptide, radiolabelled fibrinogen
Description: FbsA-9 differs from FbsA-19 in that it contains only 9 repeats in its repeat domain. The binding assay was performed with ^125I-labelled fibrinogen in the presence of different concentrations of each fusion protein. Each experiment was performed at least in triplicate.
Each experiment was performed at least in triplicate.
Purified human fibrinogen was radiolabelled with ^125I, using the chloramin T method (Hunter and Greenwood, 1962). Binding of labelled fibrinogen to GBS was performed essentially as described by Chhatwal et al. (Chhatwal, Muller, and Blobel, 1983). Briefly, overnight cultures of GBS were pelleted by centrifugation, washed twice with phosphate-buffered saline supplemented with 0.02% Tween 20 (PBST) and adjusted photometrically to a transmission of 10% at 600 nm. A total of 0.2 ml of the bacterial suspension was added to 20 μl of ^125I-labelled fibrinogen containing 23 ng of fibrinogen. After incubation for 1 h at room temperature, the streptococci were sedimented by centrifugation and washed with 1 ml of PBST. The radioactivity of the pellet was finally measured in a gamma counter (Packard Instruments). The amount of bacterial-bound fibrinogen was calculated as the percentage of total radiolabelled fibrinogen added to the bacteria. In inhibition experiments, the binding of 23 ng of radiolabelled fibrinogen to 0.2 ml of GBS (T=10%) was determined in the presence of various amounts of FbsA fusion proteins, Bsp fusion protein or synthetic peptides. Each experiment was repeated at least three times in triplicate.

[3] = tested on: A549 cells; assay: Epithelial cell adherence and internalization assay of GBS 6313 in presence of proteins; format: cell-based, human; conditions: fibrinogen 0.1 μg/ml to 1.0 μg/ml; fibronectin 10 μg/ml; data not shown
Description: The adherence of GBS 6313 to A549 cells (A) and its internalization into these cells (B) was arbitrarily set to 100% and the results obtained in the presence of the different fusion proteins was related to these values. Each experiment was performed at least three times in triplicate.
Adherence of GBS to epithelial cells and internalization into epithelial cells was assayed essentially as described previously (Caparon et al., 1991; Rubens et al. 1992). Briefly, A549 cells were transferred to 24-well tissue culture plates at approximately 4×10^5 cells per well and cultivated overnight in RPMI (Gibco BRL) tissue culture medium, supplemented with 10% of fetal calf serum. After replacement of the medium with 1 ml of fresh medium, the cells were infected with 5×10^6 streptococci per well and incubated at 37° C. for 2 h. The non-adherent bacteria were removed by washing three times with PBS. In adherence assays, the epithelial cells were subsequently detached from the well by the addition of trypsin/EDTA and lysed by adding 300 μl of distilled water. Adherent bacteria were quantitated by plating serial dilutions of the lysate onto THY agar plates. For internalization assays the epithelial cells were incubated after 2 h of infection for another 2 h in tissue culture medium supplemented with penicilling G (10 U) and streptomycin (0.01 mg) to kill extracellular bacteria. After three washes with PBS, the epithelial cells were detached by the addition of trypsin/EDTA and lysed in 300 μl of distilled water. The amount of intracellular bacteria was quantified by plating serial dilutions of the lysate onto THY agar plates. Each experiment was repeated at least three times in triplicate. […]
Adherence of S. agalactiae to A549 and HEL299 cells and internalization into these cells was assayed essentially as described in Example 1 for A549 cells. In some experiments, A549 cells were preincubated with different amounts of FbsA protein or FbsA-derived peptides in RPMI medium for 30 min with three subsequent washes with PBS.

[4] = target: T1, human fibrinogen; assay: Western blot of fusion proteins for fibrinogen binding; conditions: His-tagged fusion proteins separated by SDS-PAGE, blotted, probed with human fibrinogen
Source text: The fibrinogen binding activity of the three proteins encoded by different constructs are indicated below the schematic FbsA drawing.
The fusion proteins were size-separated by SDS-PAGE, transferred onto a nitrocellulose membrane and tested for fibrinogen binding by Western blotting. Bound fibrinogen was detected with rabbit anti-fibrinogen antibodies, followed by peroxidase-labelled goat anti-rabbit antibodies, and visualized by chemiluminescence. PabC and Gbs0851: full-length fusion proteins; PabC-N: N-terminal 388 amino acids of PabC; PabC-C: C-terminal 222 amino acids of PabC. (C) Identification of the FbsA and PabC-binding sites within human fibrinogen by Western blot analysis. […] Bound fusion proteins were detected with mouse anti-HisTag antibodies, followed by peroxidase-conjugated goat anti-mouse IgG fab fragments and visualized by chemiluminescence. […]
Membranes that had been blocked overnight were incubated for 1 h with 2 μg/ml of human fibrinogen. […] After three washes with PBST and two washes with PBS, bound fibrinogen was detected by chemiluminescence using the ECL-kit (Amersham/Pharmacia). In control experiments, no cross-reactivity of the used antibodies with the immobilized proteins and peptides was detected.

T1 sequence (P02675 31-491): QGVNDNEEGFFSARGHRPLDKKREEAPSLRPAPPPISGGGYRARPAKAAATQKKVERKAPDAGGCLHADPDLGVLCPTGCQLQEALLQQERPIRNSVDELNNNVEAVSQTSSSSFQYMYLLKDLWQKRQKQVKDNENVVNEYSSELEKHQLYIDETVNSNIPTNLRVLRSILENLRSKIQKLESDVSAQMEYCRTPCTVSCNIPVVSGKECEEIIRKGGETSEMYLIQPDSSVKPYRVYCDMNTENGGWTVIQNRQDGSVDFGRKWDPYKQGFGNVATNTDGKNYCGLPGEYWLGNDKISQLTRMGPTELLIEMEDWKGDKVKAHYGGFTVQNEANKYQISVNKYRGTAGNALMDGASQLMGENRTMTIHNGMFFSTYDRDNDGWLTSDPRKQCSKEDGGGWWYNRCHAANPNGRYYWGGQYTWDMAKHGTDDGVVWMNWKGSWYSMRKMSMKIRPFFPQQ
T1 sequence (P02679 27-433): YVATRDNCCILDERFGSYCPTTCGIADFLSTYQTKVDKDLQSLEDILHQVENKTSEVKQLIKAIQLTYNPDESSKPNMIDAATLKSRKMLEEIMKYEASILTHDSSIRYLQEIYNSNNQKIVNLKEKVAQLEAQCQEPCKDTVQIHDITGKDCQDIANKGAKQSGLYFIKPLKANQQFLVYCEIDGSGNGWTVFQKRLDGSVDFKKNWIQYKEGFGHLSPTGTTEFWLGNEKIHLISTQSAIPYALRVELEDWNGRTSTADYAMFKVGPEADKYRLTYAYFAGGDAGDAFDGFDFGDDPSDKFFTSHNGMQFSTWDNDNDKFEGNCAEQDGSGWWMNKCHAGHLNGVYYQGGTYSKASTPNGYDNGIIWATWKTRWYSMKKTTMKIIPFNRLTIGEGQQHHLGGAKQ
T1 sequence (P02671 20-629): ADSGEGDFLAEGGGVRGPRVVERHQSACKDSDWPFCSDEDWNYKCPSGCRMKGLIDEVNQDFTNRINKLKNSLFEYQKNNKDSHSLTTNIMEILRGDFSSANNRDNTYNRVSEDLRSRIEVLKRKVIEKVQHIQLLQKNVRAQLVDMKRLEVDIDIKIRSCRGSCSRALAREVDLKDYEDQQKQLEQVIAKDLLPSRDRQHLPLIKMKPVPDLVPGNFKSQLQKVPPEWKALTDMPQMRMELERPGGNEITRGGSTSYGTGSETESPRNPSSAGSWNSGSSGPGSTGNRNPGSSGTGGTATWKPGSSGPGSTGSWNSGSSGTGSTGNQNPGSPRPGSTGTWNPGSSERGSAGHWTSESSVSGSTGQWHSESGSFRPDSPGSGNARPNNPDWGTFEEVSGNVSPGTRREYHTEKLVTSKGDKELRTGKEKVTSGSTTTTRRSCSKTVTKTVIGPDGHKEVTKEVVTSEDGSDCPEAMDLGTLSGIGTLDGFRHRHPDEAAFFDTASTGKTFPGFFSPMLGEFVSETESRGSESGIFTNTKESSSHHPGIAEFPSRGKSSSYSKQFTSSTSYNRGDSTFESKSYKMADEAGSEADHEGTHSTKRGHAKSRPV

## GLSQNRDVRENQRARE (listed as Streptococcus agalactiae) [randomised peptide, reference compound]
[1]
  fibrinogen binding of synthetic 16-mer peptides on spot membrane: no binding of fibrinogen

## GNVLEARQRDAENRSQ [pep_R6A, synthetic FbsA repeat unit peptide carrying an R6A substitution]
[1]
  fibrinogen binding of synthetic 16-mer peptides on spot membrane: significantly reduced binding to fibrinogen
[1]; listed as R6A
  fibrinogen binding of synthetic 16-mer peptides on spot membrane: retained little binding activity
[2]
  inhibition of fibrinogen binding to GBS: 20%

## GNVLERRQRDAENRSQ (listed as Streptococcus agalactiae) [pep_FbsA]
[1]
  fibrinogen binding of synthetic 16-mer peptides on spot membrane: strong interaction
[2]
  inhibition of fibrinogen binding to GBS: 80%

## R^14K: FbsA repeat peptide with R14K substitution (GNVLERRQRDAENKSQ; listed as Streptococcus agalactiae)
[1]
  fibrinogen binding of synthetic 16-mer peptides on spot membrane: retained fibrinogen binding

## fibronectin [reference compound]
[3]
  bacterial adherence to A549 cells after pre-incubation of S. agalactiae 6313 with protein: did not exert an inhibitory effect
  bacterial invasion of A549 cells after pre-incubation of S. agalactiae 6313 with protein: did not exert an inhibitory effect

B1: FbsA-N: fusion protein with the 19 N-terminal repeats of FbsA-19, truncated at its C-terminus (protein)
chain: MDSVGNQSQGNVLERRQRDAENRSQGNVLERRQRDVENKSQGNVLERRQRDAENKSQGNVLERRQRDAENRSQGNVLERRQRDAENRSQGNVLERRQRDAENRSQGNVLERRQRDAENRSQGNVLERRQRDAENRSQGNVLERRQRDVENKSQGNVLERRQRDAENKSQGNVLERRQRDAENRSQGNVLERRQRDAENRSQGNVLERRQRDAENRSQGNVLERRQRDAENRSQGNVLERRQRDAENRSQGNVLERRQRDAENRSQGNVLERRQRDAENRSQGNVLERRQRDAENRSQGNVLERRQRDAENKSQVGQLIG
modifications: left off: small tags and cut ends
notes: fusion protein with the 19 N-terminal repeats of FbsA-19, truncated at its C-terminus
[4]
  fibrinogen binding in Western blot: fibrinogen binding was observed

B2: FbsA-9: derivative of FbsA-19 fusion protein with only 9 repeats in its repeat domain (protein)
chain: MDSVGNQSQGNVLERRQRDAENRSQGNVLERRQRDVENKSQGNVLERRQRDAENKSQGNVLERRQRDAENRSQGNVLERRQRDAENRSQGNVLERRQRDAENRSQGNVLERRQRDAENRSQGNVLERRQRDAENRSQGNVLERRQRDAENKSQVGQLIGKNPLLSKSIISRENNHSSQGDSNKQSFSKKVSQVTNVANRPMLTNNSRTISVINKLPKTGDDQNV
modifications: left off: small tags and cut ends
notes: derivative of FbsA-19 fusion protein with only 9 repeats in its repeat domain
[2]; increasing concentrations of purified fusion protein
  inhibition of binding of 125I-labelled fibrinogen to GBS 6313: significantly higher concentration of FbsA-9 had to be used to obtain a comparable inhibition

— US7485710B2, “Nucleic acids coding for adhesion factor of group B streptococcus, adhesion factors of group B streptococcus and further uses thereof” (priority 2002, dated 2009)
